Laboratory results published in paper doi:10.1101/2024.12.17.628833 (bioRxiv, 2024).

Molecular target: the molecule itself
Experiment: cryo-EM structure

Protein | stoichiometry N
full-length Arabidopsis GORK (AtGORK^FL, residues 1 to 820) (natural protein, Arabidopsis thaliana, UniProt Q94A76 1-820, looked up) MGRLRRRQEIIDHEEEESNDDVSSRRGKLSLAETFRWLDSSEHRRIETDGHNDYKYIIHPKNRWYKAWEMFILVWAIYSSLFTPMEFGFFRGLPERLFVLDIVGQIAFLVDIVLQFFVAYRDTQTYRTVYKPTRIAFRYLKSHFLMDFIGCFPWDLIYKASGKHELVRYLLWIRLFRVRKVVEFFQRLEKDTRINYLFTRILKLLFVEVYCTHTAACIFYYLATTLPPENEGYTWIGSLKLGDYSYENFREIDLWKRYTTALYFAIVTMATVGYGDIHAVNLREMIFVMIYVSFDMVLGAYLIGNITALIVKGSNTERFRDKMNDLISFMNRKKLGRDLRSQITGHVRLQYDSHYTDTVMLQDIPASIRAKIAQLLYLPYIKKVPLFKGCSTEFINQIVIRLHEEYFLPGEVITEQGNVVDHLYFVCEGLLEALVTKTDGSEESVTLLGPHTSFGDISIICNISQPFTVRVCELCHLLRLDKQSFSNILEIYFHDGRTILNNIMEEKESNDRIKKLESDIVIHIGKQEAELALKVNSAAFQGDFYQLKSLIRSGADPNKTDYDGRSPLHLAACRGYEDITLFLIQEGVDVNLKDKFGHTPLFEAVKAGQEGVIGLLVKEGASFNLEDSGNFLCTTVAKGDSDFLKRLLSSGMNPNSEDYDHRTPLHVAASEGLFLMAKMLVEAGASVISKDRWGNSPLDEARLCGNKKLIKLLEDVKNAQSSIYPSSLRELQEERIERRKCTVFPFHPQEAKEERSRKHGVVVWIPSNLEKLIVTAAKELGLSDGASFVLLSEDQGRITDIDMISDGHKLYMISDTTDQT | 4
AtGORK^623 (residues 1 to 623) (domain or fragment, Arabidopsis thaliana, UniProt Q94A76 1-623, looked up) MGRLRRRQEIIDHEEEESNDDVSSRRGKLSLAETFRWLDSSEHRRIETDGHNDYKYIIHPKNRWYKAWEMFILVWAIYSSLFTPMEFGFFRGLPERLFVLDIVGQIAFLVDIVLQFFVAYRDTQTYRTVYKPTRIAFRYLKSHFLMDFIGCFPWDLIYKASGKHELVRYLLWIRLFRVRKVVEFFQRLEKDTRINYLFTRILKLLFVEVYCTHTAACIFYYLATTLPPENEGYTWIGSLKLGDYSYENFREIDLWKRYTTALYFAIVTMATVGYGDIHAVNLREMIFVMIYVSFDMVLGAYLIGNITALIVKGSNTERFRDKMNDLISFMNRKKLGRDLRSQITGHVRLQYDSHYTDTVMLQDIPASIRAKIAQLLYLPYIKKVPLFKGCSTEFINQIVIRLHEEYFLPGEVITEQGNVVDHLYFVCEGLLEALVTKTDGSEESVTLLGPHTSFGDISIICNISQPFTVRVCELCHLLRLDKQSFSNILEIYFHDGRTILNNIMEEKESNDRIKKLESDIVIHIGKQEAELALKVNSAAFQGDFYQLKSLIRSGADPNKTDYDGRSPLHLAACRGYEDITLFLIQEGVDVNLKDKFGHTPLFEAVKAGQEGVIGLLVKEGASF | 4
AtGORK^510 (residues 1 to 510) (domain or fragment, Arabidopsis thaliana, UniProt Q94A76 1-510, looked up) MGRLRRRQEIIDHEEEESNDDVSSRRGKLSLAETFRWLDSSEHRRIETDGHNDYKYIIHPKNRWYKAWEMFILVWAIYSSLFTPMEFGFFRGLPERLFVLDIVGQIAFLVDIVLQFFVAYRDTQTYRTVYKPTRIAFRYLKSHFLMDFIGCFPWDLIYKASGKHELVRYLLWIRLFRVRKVVEFFQRLEKDTRINYLFTRILKLLFVEVYCTHTAACIFYYLATTLPPENEGYTWIGSLKLGDYSYENFREIDLWKRYTTALYFAIVTMATVGYGDIHAVNLREMIFVMIYVSFDMVLGAYLIGNITALIVKGSNTERFRDKMNDLISFMNRKKLGRDLRSQITGHVRLQYDSHYTDTVMLQDIPASIRAKIAQLLYLPYIKKVPLFKGCSTEFINQIVIRLHEEYFLPGEVITEQGNVVDHLYFVCEGLLEALVTKTDGSEESVTLLGPHTSFGDISIICNISQPFTVRVCELCHLLRLDKQSFSNILEIYFHDGRTILNNIMEEKESN | 4
